The values that follow are results of earlier work, collected in patent US6770020B2 (priority 2001, dated 2004).

The conditions of the series: cited from earlier work.

For “Gd-DTPA-hydroxypropylpoly(D-lysine) [Gd-DTPA-pdl]”, the membrane permeability result is reported as “membrane impermeable”.
